Laboratory results: US20110263454A1, “Methods of Identifying Functional Characteristics of Promoters, Transcription Modifying Proteins and Transcription Modulating Agents” (Salk Institute for Biological Studies, priority 2008, published 2011)

B1: Erb: Estrogen Receptor β (NR3A2, ERb), cDNA driver (protein, UniProt Q92731 1-530, looked up)
Estrogen receptor beta: MDIKNSPSSLNSPSSYNCSQSILPLEHGSIYIPSSYVDSHHEYPAMTFYSPAVMNYSIPSNVTNLEGGPGRQTTSPNVLWPTPGHLSPLVVHRQLSHLYAEPQKSPWCEARSLEHTLPVNRETLKRKVSGNRCASPVTGPGSKRDAHFCAVCSDYASGYHYGVWSCEGCKAFFKRSIQGHNDYICPATNQCTIDKNRRKSCQACRLRKCYEVGMVKCGSRRERCGYRLVRRQRSADEQLHCAGKAKRSGGHAPRVRELLLDALSPEQLVLTLLEAEPPHVLISRPSAPFTEASMMMSLTKLADKELVHMISWAKKIPGFVELSLFDQVRLLESCWMEVLMMGLMWRSIDHPGKLIFAPDLVLDRDEGKCVEGILEIFDMLLATTSRFRELKLQHKEYLCVKAMILLNSSMYPLVTATQDADSSRKLAHLLNAVTDALVWVIAKSGISSQQQSMRLANLLMLLSHVRHASNKGMEHLLNMKCKNVVPVYDLLLEMLNAHVLRGCKSSITGSECSPAEDSKSKEGSQNPQSQ
B2: ERR2: Estrogen Related Receptor β (NR3B2, ERRb), cDNA driver (protein, UniProt O95718 1-433, looked up)
Steroid hormone receptor ERR2: MSSDDRHLGSSCGSFIKTEPSSPSSGIDALSHHSPSGSSDASGGFGLALGTHANGLDSPPMFAGAGLGGTPCRKSYEDCASGIMEDSAIKCEYMLNAIPKRLCLVCGDIASGYHYGVASCEACKAFFKRTIQGNIEYSCPATNECEITKRRRKSCQACRFMKCLKVGMLKEGVRLDRVRGGRQKYKRRLDSESSPYLSLQISPPAKKPLTKIVSYLLVAEPDKLYAMPPPGMPEGDIKALTTLCDLADRELVVIIGWAKHIPGFSSLSLGDQMSLLQSAWMEILILGIVYRSLPYDDKLVYAEDYIMDEEHSRLAGLLELYRAILQLVRRYKKLKVEKEEFVTLKALALANSDSMYIEDLEAVQKLQDLLHEALQDYELSQRHEEPWRTGKLLLTLPLLRQTAAKAVQHFYSVKLQGKVPMHKLFLEMLEAKV
B3: TR4: Testicular Orphan Nuclear Receptor 4 (NR2C2), cDNA driver (protein, UniProt P49116 1-596, looked up)
Nuclear receptor subfamily 2 …: MTSPSPRIQIISTDSAVASPQRIQIVTDQQTGQKIQIVTAVDASGSPKQQFILTSPDGAGTGKVILASPETSSAKQLIFTTSDNLVPGRIQIVTDSASVERLLGKTDVQRPQVVEYCVVCGDKASGRHYGAVSCEGCKGFFKRSVRKNLTYSCRSNQDCIINKHHRNRCQFCRLKKCLEMGMKMESVQSERKPFDVQREKPSNCAASTEKIYIRKDLRSPLIATPTFVADKDGARQTGLLDPGMLVNIQQPLIREDGTVLLATDSKAETSQGALGTLANVVTSLANLSESLNNGDTSEIQPEDQSASEITRAFDTLAKALNTTDSSSSPSLADGIDTSGGGSIHVISRDQSTPIIEVEGPLLSDTHVTFKLTMPSPMPEYLNVHYICESASRLLFLSMHWARSIPAFQALGQDCNTSLVRACWNELFTLGLAQCAQVMSLSTILAAIVNHLQNSIQEDKLSGDRIKQVMEHIWKLQEFCNSMAKLDIDGYEYAYLKAIVLFSPDHPGLTSTSQIEKFQEKAQMELQDYVQKTYSEDTYRLARILVRLPALRLMSSNITEELFFTGLIGNVSIDSIIPYILKMETAEYNGQITGASL
B4: ERR3: Estrogen Related Receptor γ (NR3B3, ERRg), cDNA driver (protein, UniProt P62508 1-458, looked up)
Estrogen-related receptor …: MDSVELCLPESFSLHYEEELLCRMSNKDRHIDSSCSSFIKTEPSSPASLTDSVNHHSPGGSSDASGSYSSTMNGHQNGLDSPPLYPSAPILGGSGPVRKLYDDCSSTIVEDPQTKCEYMLNSMPKRLCLVCGDIASGYHYGVASCEACKAFFKRTIQGNIEYSCPATNECEITKRRRKSCQACRFMKCLKVGMLKEGVRLDRVRGGRQKYKRRIDAENSPYLNPQLVQPAKKPYNKIVSHLLVAEPEKIYAMPDPTVPDSDIKALTTLCDLADRELVVIIGWAKHIPGFSTLSLADQMSLLQSAWMEILILGVVYRSLSFEDELVYADDYIMDEDQSKLAGLLDLNNAILQLVKKYKSMKLEKEEFVTLKAIALANSDSMHIEDVEAVQKLQDVLHEALQDYEAGQHMEDPRRAGKMLMTLPLLRQTSTKAVQHFYNIKLEGKVPMHKLFLEMLEAKV

What was measured:
[1] = test system: mPgc1b promoter; assay: NHR-promoter luciferase screen, mPgc1b promoter; type: cell-based, mouse; conditions: for Luc. act., normalized to lacZ / Normalized Luc. act., normalized to control: PGC1b promoter reporter, co-transfected HR, without or with its ligand; for Normalized Luc. act., normalized to control: relative to control; for luciferase activity normalized to lacZ activity and to a control, mPgc1b: mPgc1b promoter-luciferase, CV-1 cells, NHR +/- ligand, control = 1.00
Method in brief: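 CV-1 cells co-transfected with NHR homodimer or NHR/RXR heterodimer (pcDNA3.1, C-terminal V5H6 tag), promoter-luciferase construct and LacZ transfection control. Orphan receptors screened without ligand. Luciferase normalized to LacZ and to no-NHR/no-ligand control.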

[2] = test system: mPer1 promoter; assay: NHR-promoter luciferase screen, mPer1 promoter; type: cell-based, mouse; conditions: for Luc. act., normalized to lacZ / Normalized Luc. act., normalized to control: Per1 promoter reporter, co-transfected HR, with or without its ligand; for Normalized Luc. act., normalized to control: relative to control; for luciferase activity normalized to lacZ activity and to a control, mPer1: mPer1 promoter-luciferase, CV-1 cells, NHR +/- ligand, control = 1.00
Method in brief: (§1)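 CV-1 cells were co-transfected with 50 ng NHR (homodimer or NHR/RXR heterodimer), 100 ng promoter-luciferase construct and 50 ng LacZ. Luciferase was normalized to LacZ and to a no-NHR/no-ligand control.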

[3] = test system: mAdiponectin promoter; assay: NHR-promoter luciferase screen, mAdiponectin promoter; type: cell-based, mouse; conditions: for Luc. act., normalized to lacZ / Normalized Luc. act., normalized to control: Adiponectin, HR component without or with its ligand; for mAdiponectin promoter reporter activity: transcription factor +/- ligand, control = 1.00
Method in brief: as §1

[4] = test system: RevErba promoter; assay: NHR-promoter luciferase screen, RevErba (RVRa) promoter; type: cell-based; set-up: key to mRevErba promoter reporter activity / Normalized Luc. act., normalized to control: luciferase activity normalized to lacZ and to control (no NHR/ligand); conditions: for Luc. act., normalized to lacZ / Normalized Luc. act., normalized to control / negative reciprocal of normalized Luc. act. (fold repression; Table 33) / normalized Luc. act. on a logarithmic scale (column without head, Table 33): RVRa promoter; for Luc. act., normalized to lacZ / Normalized Luc. act., normalized to control: HR component without or with ligand; for negative reciprocal of normalized Luc. act. (fold repression; Table 33): given only where activity is below control; for normalized Luc. act. on a logarithmic scale (column without head, Table 33): log10 of activity normalized to control; for mRevErba promoter reporter activity: transcription factor +/- ligand, control = 1.00
Method in brief: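 CV-1 cells co-transfected with NHR (pcDNA3.1, C-terminal V5H6 tag) as homodimer or RXR heterodimer, RevErbα promoter–luciferase reporter and LacZ transfection control; ligand added where applicable. Luciferase normalized to LacZ and to no-NHR/no-ligand control.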

[5] = test system: hPPARg1 promoter; assay: NHR-promoter luciferase screen, hPPARg1 promoter; type: cell-based, human; conditions: for Luc. act., normalized to lacZ / Normalized Luc. act., normalized to control: PPARG1 promoter, hormone receptor with or without its ligand; for Normalized Luc. act., normalized to control: relative to control; for Results of assays of transcription factor (+/- ligand) with hPPARg1: Table 6d, luciferase activity relative to control (control = 1.00)
Method in brief: as §1

| Molecule | Luc. act., normalized to lacZ [1] | Normalized Luc. act., normalized to control [1] | luciferase activity normalized to lacZ activity and to a control, mPgc1b [1] | Luc. act., normalized to lacZ [2] | Normalized Luc. act., normalized to control [2] | luciferase activity normalized to lacZ activity and to a control, mPer1 [2] | Luc. act., normalized to lacZ [3] | Normalized Luc. act., normalized to control [3] | mAdiponectin promoter reporter activity [3] | Luc. act., normalized to lacZ [4] | Normalized Luc. act., normalized to control [4] | negative reciprocal of normalized Luc. act. (fold repression; Table 33) [4] | normalized Luc. act. on a logarithmic scale (column without head, Table 33) [4] | mRevErba promoter reporter activity [4] | Luc. act., normalized to lacZ [5] | Normalized Luc. act., normalized to control [5] | Results of assays of transcription factor (+/- ligand) with hPPARg1 [5] |
| --- | --- | --- | --- | --- | --- | --- | --- | --- | --- | --- | --- | --- | --- | --- | --- | --- | --- |
| B1 | 9.2 | 0.8 | 0.77 | 79.1 | 0.5 | 0.55 | 68.6 | 1.1 | 1.09 | 20.0 | 0.7 | −1.397 | −0.15 | 0.72 | 45.3 | 0.7 | 0.66 |
| B2 | 12.7 | 1.1 | 1.07 | 328.2 | 2.3 | 2.28 | 55.3 | 0.9 | 0.88 | 42.3 | 1.5 | – | 0.18 | 1.51 | 59.1 | 0.9 | 0.86 |
| B3 | 17.3 | 1.5 | 1.46 | 225.6 | 1.6 | 1.57 | 296.1 | 4.7 | 4.71 | 26.5 | 0.9 | −1.054 | −0.02 | 0.95 | 66.2 | 1.0 | 0.96 |
| B4 | 20.1 | 1.7 | 1.70 | 226.8 | 1.6 | 1.58 | 69.7 | 1.1 | 1.11 | 123.1 | 4.4 | – | 0.64 | 4.40 | 63.7 | 0.9 | 0.92 |
